Experiment [1] addresses T1, His-enterokinase cleavage site (EK)-cynoGal3 (TrueBinding in-house antigen) (cynomolgus, UniProt A0A7N9CYL1 6-247).
T1 construct: also called His-EK-cynoGal3; cynomolgus Gal3; not shown: His tag and enterokinase cleavage site
The experiment is described as follows: SPR Biacore T200, protocol of Example 9.

For experiment [2], the target named is T2, human Galectin-3 (Gal3) (human, UniProt P17931 2-250, limits assumed).
T2 construct: also called hGal3; hGAL3
The experiment is described as follows: SPR Carterra LSA, protocol of Example 9.

Experiment [3] addresses T3, mouse Gal3 (mouse, UniProt P16110 2-264, limits assumed). The experiment in a line: SPR Carterra LSA, protocol of Example 9.
The target in experiment [4] is T1, His-enterokinase cleavage site …. The experiment in a line: SPR Biacore T200, antibody captured, 1:1 fit.
Another experiment deals with T4, His-EK-ratGal3 (rat, UniProt P08699 2-262).
T4 construct: not shown: His tag and enterokinase cleavage site
T4 sequence (looked up): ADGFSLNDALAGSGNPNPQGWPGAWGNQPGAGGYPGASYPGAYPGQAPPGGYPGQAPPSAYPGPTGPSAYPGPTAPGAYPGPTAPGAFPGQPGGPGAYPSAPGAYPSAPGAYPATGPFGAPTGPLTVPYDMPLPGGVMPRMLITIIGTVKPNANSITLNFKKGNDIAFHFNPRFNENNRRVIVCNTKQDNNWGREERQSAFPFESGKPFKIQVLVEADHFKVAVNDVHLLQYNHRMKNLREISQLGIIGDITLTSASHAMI
The experiment in a line: SPR Biacore T200, antibody captured by anti-human Fc, 1:1 fit.

Experiment [5] addresses T2, human Galectin-3 (Gal3). The experiment is described as follows: SPR Carterra LSA, antibody captured on Protein A/G, Gal3 analyte.
In experiment [6] the target is T3, mouse Gal3. Described as above.
For experiment [7], the target named is T5, Human Galectin-3 protein (Acro Biosystems, GA3-H5129) (human, UniProt P17931 2-250).
T5 construct: bought; also called Gal3-ECD-His; Gal3-His; not shown: linker-spaced 6-histidine tag
T5 sequence (P17931 2-250): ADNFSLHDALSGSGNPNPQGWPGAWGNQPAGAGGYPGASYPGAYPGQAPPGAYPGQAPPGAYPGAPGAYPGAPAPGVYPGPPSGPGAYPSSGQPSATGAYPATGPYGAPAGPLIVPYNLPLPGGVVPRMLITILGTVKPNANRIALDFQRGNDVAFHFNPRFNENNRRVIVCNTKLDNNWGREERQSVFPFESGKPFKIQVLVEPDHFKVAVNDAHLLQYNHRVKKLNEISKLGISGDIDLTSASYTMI
The experiment is described as follows: SPR sandwich binning, Carterra LSA.

A further experiment concerns the target T6, Peptide 5 of Gal3 (human).
T6 peptide: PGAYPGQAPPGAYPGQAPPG
The experiment is described as follows: peptide ELISA, antibody as hIgG4(S228P) at 5 ug/mL.

A further experiment has as its target T7, Peptide 6 of Gal3 (human).
T7 peptide: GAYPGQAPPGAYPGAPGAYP
The experiment is described as follows: peptide ELISA, antibody as hIgG4(S228P) at 5 ug/mL.

Experiment [8] deals with T5, Human Galectin-3 protein (Acro …). The experiment is described as follows: ELISA, INSR binding to coated Gal3 with 3 ug/mL antibody.
Experiment [9] has as its target T2, human Galectin-3 (Gal3). The experiment is described as follows: SPR Biacore T200, antibody captured, Gal3 analyte, 1:1 fit.
The target in experiment [10] is T2, human Galectin-3 (Gal3). The experiment in a line: HDX-MS.

T3 sequence (P16110 2-264 limits assumed): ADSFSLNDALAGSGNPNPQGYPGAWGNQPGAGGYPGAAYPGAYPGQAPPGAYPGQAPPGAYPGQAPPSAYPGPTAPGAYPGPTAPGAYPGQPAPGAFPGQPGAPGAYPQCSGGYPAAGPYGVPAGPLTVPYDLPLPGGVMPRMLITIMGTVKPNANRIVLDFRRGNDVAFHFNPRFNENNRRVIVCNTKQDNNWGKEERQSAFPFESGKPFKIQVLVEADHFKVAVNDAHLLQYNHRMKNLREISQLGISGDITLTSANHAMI
T2 sequence (P17931 2-250 limits assumed): as the sequence (P17931 2-250) above
T1 sequence (A0A7N9CYL1 entry or part of it): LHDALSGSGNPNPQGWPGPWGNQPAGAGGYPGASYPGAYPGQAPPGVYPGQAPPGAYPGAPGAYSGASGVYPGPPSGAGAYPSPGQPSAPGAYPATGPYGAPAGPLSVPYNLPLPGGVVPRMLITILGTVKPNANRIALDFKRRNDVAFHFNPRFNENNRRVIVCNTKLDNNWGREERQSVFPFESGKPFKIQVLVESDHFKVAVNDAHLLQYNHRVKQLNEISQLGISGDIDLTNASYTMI

B1: TB001 (antibody, V domains shown)
VH: QVQLVQSGSELKKPGASVKVSCKASGYTFTNYGMNWVRQAPGQGLKWMGWINTNTGEPTYVEEFTGRFVFSLETSVSTAYLQISSLKAEDTAVYFCAPYDNFFAYWGQGTTVTVSS
VL: DIVLTQSPLSLPVTPGEPASISCRSSKSLLYKDGKTYLNWFLQKPGQSPQLLIYLMSTHASGVPDRFSGSGSGTDFTLKISRVEAEDVGVYYCQQLVDYPLTFGGGTKLEIKR
Take B1: the Kd amounted to 34 nM in experiment [1]; 9.7 nM with human Galectin-3 (Gal3) [2]; 4.2 nM with mouse Gal3 [3]; 8.9 nM in experiment [4]; 14 nM in the experiment with His-EK-ratGal3; 3.6 nM with human Galectin-3 (Gal3) [5]. The same molecule yielded a Kd in the experiment with mouse Gal3 [6] of 0.0023 µM.

B2: F847C.21H6 (antibody, V domains shown)
VH: QIQLVQSGPELKKPGETVKISCKASGYTFTIFGMNWVKQAPGKGLKWMGWVNTYTGEPTYADDFKGRFAFSLETSASTAYLQINNLKNEDTATYFCARGWFAYWGQGTLVTVSA
VL: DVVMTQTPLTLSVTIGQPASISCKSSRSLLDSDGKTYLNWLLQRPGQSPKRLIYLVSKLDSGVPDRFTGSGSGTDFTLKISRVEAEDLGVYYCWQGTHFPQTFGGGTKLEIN
Regarding B2, the binding result (in experiment [7]; with Peptide 5 of Gal3; with Peptide 6 of Gal3) was “binds” each time.

B3: TB006 (antibody, V domains shown)
VH: QVQLVQSGAEVKKPGASVKVSCKASGYSFTNYYMHWVRQAPGQRLEWMGWIYPGSGNTNYNEKFQGRVTITADTSASTAYMELSSLRSEDTAVYYCSTAPGGFDVWGQGTTVTVSS
VL: DIVMTQTPLSLSVTPGQPASISCKSSKSLLHSDGITYLYWYLQKPGQSPQLLIYRMSNLASGVPDRFSGSGSGTDFTLKISRVEAEDVGVYYCAQMLEFPLTFGQGTKLEIKR
Consider B3, for which the Kd in [1] stood at 9.4 nM; with human Galectin-3 (Gal3) [2], 23 nM; in [4] it was 5.1 nM; in the experiment with human Galectin-3 (Gal3) [5] it was 8.9 nM; in the experiment with mouse Gal3 [6], 40 µM.

B4: 9H2.2H10 (antibody, V domains shown)
VH: QVQLQQPGAELVGPGSSVKLSCKASGYTFTNYWIHWVKQRPLQGLEWIGNIDPSDSETHYNQKFKDKATLTVDKSSSTAYMQLSSLTSEDSAVYYCARHGYYDYWGQGTTLTVSS
VL: DIVMTQSHKFMSTSVGDRVSITCKASQDVSTAVAWYQQKPGQSPKLLIYWASTRHTGVPDRFTGSGSGTDYTLTISSVQAEDLALYYCQQHYTTPLTFGAGTKLELKR
Consider B4, for which the “inhibition of Gal3-INSR binding, %” value in experiment [8] was ≤ 30%. The Kd with human Galectin-3 (Gal3) [9] was 2.53 nM.

B5: 12G5.D7 (antibody, V domains shown)
VH: QVQLKQSGAELVRPGASVKLSCKASGYTFTDYYINWVKQRPGQGLEWIARIYPGTGNTDYNEKFKGRATLTAEKSSSTAYMQLSSLTSEDSAVYFCARFAYYYGSGGYFDYWGHGTTLTVSS
VL: DILMTQSPSSMSVSLGDTVSITCHASQGINSNMGWLQQKPGKSFKGLIYHATNLEDGVPSRFSGSGSGADYSLTISSLESEDFADYYCVQYAQFPPTFGSGTKLEIK
Take B5: in experiment [8], the “inhibition of Gal3-INSR binding, %” value is ≤ 30%. This molecule also came in with a Kd in the experiment with human Galectin-3 (Gal3) [9] of 1.9 nM.

B6: 13G4.2F8 (antibody, V domains shown)
VH: QVQLQQPGAELVKPGASVKLSCKASGYTFTSYWMHWVKQRPGQGLEWIGMIHPNSGSTDYNEKFKNKATLNVDKSSSTAYIQLSSLTSEDSAVYYCTRWGIYYYARDYWGQGTTLTVSS
VL: DIVMTQSQKFMSTSVGERVSITCKASQNVGTNVAWYQQKAGQSLELLIYGASNRHTGVPDRFTGSGSGTDFTLTITNVQSEDMTNYFCEQYSNFPLTFGAGTKLELKR
B6: in experiment [8], the “inhibition of Gal3-INSR binding, %” value is ≤ 30%. This molecule also gave a Kd with human Galectin-3 (Gal3) [9] of 18.4 nM.

B7: 19B5.2E6 (antibody, V domains shown)
VH: QIQLVQSGPELKKPGETVKISCKASGYTFTTYAMSWVKQAPGKGLKWMGWINTYSGVPTYADDLKGRFAFSLETSASTAYLQINNLKNEDTATYFCARGPYAMDYWGQGTSVTVSS
VL: DIQMTQTTSSLSASLGDRVTISCSASQGINNYLNWYQQKPDGTVKLLIYYASSLHSGVPSRFSGSGSGTDYSLTISNLEPEDIATYYCQQYSQVPYTFGSGTKLEIKR
B7: in experiment [8], the “Gal3-INSR binding left, % of unblocked sample” value (from here on “Gal3-INSR binding left, %”) was < 5%.

B8: 23H9.2E4 (antibody, V domains shown)
VH: QIQLVQSGPELKKPGETVKISCKASGYTFTTYAMSWVKQAPGKGLKWMGWINTYSGVPTYADDLKGRFAFSLETSASTAYLQINNLKNEDTATYFCARGPYAMDYWGQGTSVTVSS
VL: DIQMTQTTSSLSASLGDRVTISCSASQGINNYLNWYQQKPDGTVKLLIYYASSLHSGVPSRFSGSGSGTDYSLTISNLEPEDIATYYCQQYSQVPYTFGSGTKLEIK
As for B8, in experiment [8], the “Gal3-INSR binding left, %” value was < 5%.

B9: 24D12.2H9 (antibody, V domains shown)
VH: QVQLKQSGPGLVQPSQSLSITCTVSGFSLTSYGVHWVRQAPGKGLEWLGVIWSGGSTDYNAAFMSRLSISKDNSKSQVFFKMNSLQADDTAIYYCAKSPDGYDVAWFGYWGQGTLVTVSA
VL: DIVMTQSHKFMSTSVGDRVSITCKASQDVRTAVAWYQQKPGQSPKLLIYWASTRHTGVPDRFTGSGSGTDFTLTLSNVQSEDLADYFCQQYSSYPWTFGGGTKLEIKR
In the case of B9, the “inhibition of Gal3-INSR binding, %” value in experiment [8] is ≤ 30%. The Kd in the experiment with human Galectin-3 (Gal3) [9] was 4.13 nM.

B10: 3B11.2G2 (antibody, V domains shown)
VH: QIQLVQSGPELKKPGETVKISCKTSGYKFKTYVMSWVKQAPGKALKWMGWINTYSGVPTYADDFKGRFAFSLETSASTAYLEIINLKNEDTATYFCARDGNYGDPMDYWGQGTSVTVSS
VL: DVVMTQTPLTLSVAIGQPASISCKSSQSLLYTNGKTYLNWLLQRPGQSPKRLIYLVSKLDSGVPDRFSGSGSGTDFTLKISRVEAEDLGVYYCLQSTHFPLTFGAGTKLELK
As to B10, the “Gal3-INSR binding left, %” value in experiment [8] was < 5%.

B11: Arg 228-Val 292 truncated form of GLUT4 (other)
chain: RYLYIIQNLEGPARKSLKRLTGWADVSGVLAELKDEKRKLERERPLSLLQLLGSRTHRQPLIIAV
Take B11: the binding result with human Galectin-3 (Gal3) [10] is listed as “binds”.

B12: 15G7.2A7 (antibody, V domains shown)
VH: EVQLQQSGPELVKPGASVKISCKASGYTFTDYYMNWVKQSHGKSLEWIGDINPNNGGTNYNQKFKGKATLTVDKSSSTAYMELRSLTSEDSAVYYCTSGYGFPYWGQGTLVTVSA
VL: DIQMNQSPSSLSASLGDTISITCRASQNINIWLSWYQQKPGNIPQLLIYKASNLHTGVPSRFSGSGSGTDFTLTISSLQPEDIATYYCLQGQSYPLTFGAGTKLVMKR
Turning to B12, the “inhibition of Gal3-INSR binding, %” value in experiment [8] is > 99%. Besides, the Kd in the experiment with human Galectin-3 (Gal3) [9] is 27.8 nM.

(Values after patent US20220411514A1 (TRUEBINDING, published 2022).)
